The text below walks through data of publication PMC8142631.

In experiment [1] the target is endogenous EPCR expressed on EA.hy926 cells (human (endogenous in EA.hy926)) (UniProt Q9UNN8). Put plainly: on-cell western.
Experiment [2] deals with Soluble wild-type EPCR (endothelial protein C receptor) (UniProt Q9UNN8). Description: ELISA.
The target in experiment [3] is E86A-sEPCR (soluble EPCR variant) (UniProt Q9UNN8). Description: ELISA.
The target in experiment [4] is endogenous EPCR expressed on EA.hy926 cells (human (endogenous in EA.hy926)) (UniProt Q9UNN8). Put plainly: binding to cells, read-out not stated.
For experiment [5], the target named is Soluble wild-type EPCR (endothelial protein C receptor) (UniProt Q9UNN8).

With “recombinant CIDRα1.1 domain derived from FCR3 IT4VAR20 PfEMP1 (domain or fragment)”, the figures for the Kd in experiment [1], in experiment [2] and in experiment [3] were 8 nM, 4.3 nM and 4.4 nM, respectively. Besides, in experiment [4], the CIDRα1.1 concentration at complete inhibition of APC binding to endothelial EPCR was determined as 100 nM. Also, the IC50 in experiment [4] is 33 nM; in experiment [5], 12.5 nM. This substance gave a CIDRα1.1 concentration at complete inhibition of APC binding to sEPCR in experiment [5] of 50 nM.
